Laboratory results taken from the supplement of paper PMC7125110.
± gives the standard error. Variants at the floor of the assay were thinned out.

B1: glmS ribozyme (parent)
chain: AUAAAAGCGCCAGAACUACAGAAAUGUAGUUGACGAGGAGGAGGUUUAUCGAAUUUUCGGCGGAUGCCUCCAAA

Key:
Settings in all cases: with glucosamine-6-phosphate
glucosamine-6-phosphate [1] = variants of: B1; assay: self-cleavage kobs at 640 uM GlcN6P; higher = faster cleavage; RNA array
How it was run: (§1)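 Barcoded ribozyme variants on sequenced MiSeq chips were transcribed in situ by E. coli RNA polymerase and followed at 37 °C through a hybridised Cy3 probe. Glucosamine-6-phosphate at 40 μM to 10 mM in HEPES/KCl/Mg(OAc)2 buffer was flowed in, and tiles were imaged over ~14 h. Signals were normalised to baseline and to non-cleaving reference variants, and per-tile medians were fit to one- or two-exponential decays to give kobs. Weighted Michaelis–Menten fits across concentrations gave kcat and KM.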

glucosamine-6-phosphate [2] = variants of: B1; assay: self-cleavage kobs at 2500 uM GlcN6P; higher = faster cleavage; RNA array
How it was run: as §1

glucosamine-6-phosphate [3] = variants of: B1; assay: self-cleavage kobs at 10000 uM GlcN6P; higher = faster cleavage; RNA array
How it was run: as §1

Variant	self-cleavage kobs at 640 uM GlcN6P (glucosamine-6-phosphate [1])	self-cleavage kobs at 2500 uM GlcN6P (glucosamine-6-phosphate [2])	self-cleavage kobs at 10000 uM GlcN6P (glucosamine-6-phosphate [3])
C61G G63A C71G	0.000127 ± 4.2e-05 s⁻¹	0.000255 ± 9.2e-05 s⁻¹	
A12C C34A U69C	< 1e-05 s⁻¹		
G51A G66A U69A	0.000177 ± 7.9e-05 s⁻¹		
C16U G43A C67G	0.000254 ± 6.6e-05 s⁻¹		0.000419 ± 0.0001 s⁻¹
C8G A33U G41U	< 1e-05 s⁻¹		
C10U U31C U49C	< 1e-05 s⁻¹		
G43A A48U C50A	< 1e-05 s⁻¹	< 1e-05 s⁻¹	
G35A G37U C58A C70A	0.000632 ± 0.00016 s⁻¹		
U31C G32A U55A	0.000149 ± 2.6e-05 s⁻¹	0.000644 ± 0.00017 s⁻¹	
A14G C16G U30C	9.39e-05 ± 1.9e-05 s⁻¹		
U46C C67U	0.000202 ± 5.2e-05 s⁻¹	0.000469 ± 0.00013 s⁻¹	0.000426 ± 8.9e-05 s⁻¹
C11A G13U U57G C71U	4.71e-05 ± 2.2e-05 s⁻¹		
G35A U47A C50G U54G	0.000171 ± 6.3e-05 s⁻¹	0.000152 ± 4.7e-05 s⁻¹	
A36U G40U G60U	< 1e-05 s⁻¹	< 1e-05 s⁻¹	
G13U U55G U56C	7.76e-05 ± 2.4e-05 s⁻¹	0.000112 ± 2.5e-05 s⁻¹	
G29C U47A C50A	< 1e-05 s⁻¹		< 1e-05 s⁻¹

Variant	self-cleavage kobs at 640 uM GlcN6P (glucosamine-6-phosphate [1])	self-cleavage kobs at 2500 uM GlcN6P (glucosamine-6-phosphate [2])	self-cleavage kobs at 10000 uM GlcN6P (glucosamine-6-phosphate [3])
A12U A14G U30G A33G G66A	< 1e-05 s⁻¹	< 1e-05 s⁻¹	
A14U A36C U47C	< 1e-05 s⁻¹		
G9A A42G A52G	< 1e-05 s⁻¹		
G41A U55C	1.88e-05 ± 8.5e-06 s⁻¹	0.000105 ± 1.9e-05 s⁻¹	
G32C G63A U65A	< 1e-05 s⁻¹	< 1e-05 s⁻¹	
C50U G63U C68G	0.000126 ± 5e-05 s⁻¹	7.59e-05 ± 3.2e-05 s⁻¹	
C10A U56A C70U	6.36e-05 ± 2.6e-05 s⁻¹	0.000147 ± 6.5e-05 s⁻¹	
G43A G51U U65A G66U	< 1e-05 s⁻¹	< 1e-05 s⁻¹	
A39U A48U U55C G59U	< 1e-05 s⁻¹	< 1e-05 s⁻¹	
G35C A36C G40A G62C A64G C70U	< 1e-05 s⁻¹	< 1e-05 s⁻¹	
G9A U57A	< 1e-05 s⁻¹	< 1e-05 s⁻¹	
A33C G43U G63U	< 1e-05 s⁻¹	< 1e-05 s⁻¹	< 1e-05 s⁻¹
G13A C16G G29U G37A G40U	< 1e-05 s⁻¹		
C11U C16U C71G	6.83e-05 ± 1.8e-05 s⁻¹	0.000127 ± 3.7e-05 s⁻¹	
C11A A14G G41U G51C	< 1e-05 s⁻¹	< 1e-05 s⁻¹	
